Test results reported in publication PMC4728371 (Genome Research, 2016).

Target: the molecule itself
Assay: SEC-MALS

B1: ZAK LZ-SAM (residues 286-410), purified (domain or fragment, human, UniProt Q9NYL2-1 286-410, looked up)
chain: EIEATLERLKKLERDLSFKEQELKERERRLKMWEQKLTEQSNTPLLPSFEIGAWTEDDVYCWVQQLVRKGDSSAEMSVYASLFKENNITGKRLLLLEEEDLKDMGIVSKGHIIHFKSAIEKLTHD
  stoichiometry N: 2
